Bridge positions count the residues as written; N and C are the ends. * marks the point of attachment. tMeBn(DOTA-AET) = Cys-Cys bridge (thioethers) carrying DOTA-AET; tMeBn(DOTA-PP) = Cys-Cys bridge (thioethers) carrying DOTA-PP; Hexanoyl = CCCCCC(=O)*
T1: M1 (h) (human (printed (h))), P11229
T1 chain: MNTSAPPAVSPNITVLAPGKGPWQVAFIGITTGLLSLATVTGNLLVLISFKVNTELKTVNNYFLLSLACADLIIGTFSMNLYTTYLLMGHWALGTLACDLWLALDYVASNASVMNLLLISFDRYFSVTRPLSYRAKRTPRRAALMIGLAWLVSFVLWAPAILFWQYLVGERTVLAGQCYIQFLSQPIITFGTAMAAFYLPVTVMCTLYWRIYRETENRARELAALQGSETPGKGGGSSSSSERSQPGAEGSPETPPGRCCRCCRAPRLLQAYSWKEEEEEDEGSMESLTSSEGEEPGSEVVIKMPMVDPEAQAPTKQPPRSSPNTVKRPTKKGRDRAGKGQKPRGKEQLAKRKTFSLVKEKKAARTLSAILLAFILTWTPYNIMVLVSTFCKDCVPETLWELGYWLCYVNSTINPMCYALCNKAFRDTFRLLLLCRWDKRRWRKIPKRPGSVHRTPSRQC

T2: A2A (h) (human (printed (h))), P29274
T2 chain: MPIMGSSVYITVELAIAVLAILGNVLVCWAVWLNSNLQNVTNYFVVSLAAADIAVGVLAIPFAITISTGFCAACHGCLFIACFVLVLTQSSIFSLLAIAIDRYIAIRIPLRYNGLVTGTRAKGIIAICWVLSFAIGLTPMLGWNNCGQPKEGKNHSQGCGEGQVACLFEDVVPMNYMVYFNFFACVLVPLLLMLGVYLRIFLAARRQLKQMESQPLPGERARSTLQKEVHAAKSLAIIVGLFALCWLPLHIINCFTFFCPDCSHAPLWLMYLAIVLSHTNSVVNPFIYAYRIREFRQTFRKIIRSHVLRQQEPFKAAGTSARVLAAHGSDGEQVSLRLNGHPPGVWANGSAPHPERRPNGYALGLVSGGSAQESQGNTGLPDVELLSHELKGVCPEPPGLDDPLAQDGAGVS

T3: D1 (h) (human (printed (h))), P21728
T3 chain: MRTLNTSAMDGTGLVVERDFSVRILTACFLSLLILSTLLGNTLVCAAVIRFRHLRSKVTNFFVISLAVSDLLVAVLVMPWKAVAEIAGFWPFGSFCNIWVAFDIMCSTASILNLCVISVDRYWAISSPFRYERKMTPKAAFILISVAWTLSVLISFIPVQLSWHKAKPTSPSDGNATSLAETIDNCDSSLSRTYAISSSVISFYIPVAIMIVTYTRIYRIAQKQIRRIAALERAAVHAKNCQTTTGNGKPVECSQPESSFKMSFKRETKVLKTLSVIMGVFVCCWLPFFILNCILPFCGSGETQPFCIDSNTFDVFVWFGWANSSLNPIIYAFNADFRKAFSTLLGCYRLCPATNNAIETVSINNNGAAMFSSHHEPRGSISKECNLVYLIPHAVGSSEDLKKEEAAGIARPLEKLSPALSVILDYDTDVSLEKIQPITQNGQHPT

T4: CB1 (h) (human (printed (h))), P21554
T4 chain: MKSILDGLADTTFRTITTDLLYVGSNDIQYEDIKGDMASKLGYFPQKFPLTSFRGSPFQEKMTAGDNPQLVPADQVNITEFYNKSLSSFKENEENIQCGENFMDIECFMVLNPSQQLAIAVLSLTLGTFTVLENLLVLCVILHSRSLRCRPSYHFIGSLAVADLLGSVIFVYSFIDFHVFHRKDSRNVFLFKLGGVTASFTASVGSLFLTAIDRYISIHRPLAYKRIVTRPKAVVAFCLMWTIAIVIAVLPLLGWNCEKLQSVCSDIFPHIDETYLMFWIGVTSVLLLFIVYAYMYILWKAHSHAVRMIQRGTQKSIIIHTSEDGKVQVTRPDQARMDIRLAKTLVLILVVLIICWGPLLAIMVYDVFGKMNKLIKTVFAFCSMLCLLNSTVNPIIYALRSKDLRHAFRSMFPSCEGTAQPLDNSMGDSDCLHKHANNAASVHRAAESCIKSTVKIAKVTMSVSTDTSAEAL

T5: alpha 2A (h) (human (printed (h))), P08913
T5 chain: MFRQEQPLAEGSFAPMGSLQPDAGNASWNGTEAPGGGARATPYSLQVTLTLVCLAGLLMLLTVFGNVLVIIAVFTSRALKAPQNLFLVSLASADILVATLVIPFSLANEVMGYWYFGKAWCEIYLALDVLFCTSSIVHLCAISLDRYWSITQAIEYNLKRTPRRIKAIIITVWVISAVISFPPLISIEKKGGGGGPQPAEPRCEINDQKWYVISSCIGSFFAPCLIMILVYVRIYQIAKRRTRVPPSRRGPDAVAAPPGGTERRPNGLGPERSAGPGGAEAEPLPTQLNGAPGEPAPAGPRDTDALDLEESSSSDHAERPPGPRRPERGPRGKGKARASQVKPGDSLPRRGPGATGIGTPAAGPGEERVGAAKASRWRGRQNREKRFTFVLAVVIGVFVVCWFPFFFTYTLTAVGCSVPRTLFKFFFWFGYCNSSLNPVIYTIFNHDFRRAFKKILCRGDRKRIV

T6: M2 (h) (human (printed (h))), P08172
T6 chain: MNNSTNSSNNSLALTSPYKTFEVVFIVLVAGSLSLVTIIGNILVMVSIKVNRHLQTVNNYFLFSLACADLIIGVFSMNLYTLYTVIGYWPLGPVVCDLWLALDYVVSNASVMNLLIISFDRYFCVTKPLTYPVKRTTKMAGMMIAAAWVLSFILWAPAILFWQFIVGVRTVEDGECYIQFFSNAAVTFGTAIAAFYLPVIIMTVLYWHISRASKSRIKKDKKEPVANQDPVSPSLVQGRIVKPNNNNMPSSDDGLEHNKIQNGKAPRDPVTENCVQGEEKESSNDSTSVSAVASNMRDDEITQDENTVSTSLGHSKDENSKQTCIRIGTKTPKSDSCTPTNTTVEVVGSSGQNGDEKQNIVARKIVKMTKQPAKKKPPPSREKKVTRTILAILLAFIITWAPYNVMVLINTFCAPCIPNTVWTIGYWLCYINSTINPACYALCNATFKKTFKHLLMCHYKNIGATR


Experiments:
Test in all cases: radioligand displacement, 10 uM compound
Conditions in all cases: remark: other sources report otherwise
[1] = target: T1, M1 (h) (human (printed (h))), P11229
[2] = target: T2, A2A (h) (human (printed (h))), P29274
[3] = target: T3, D1 (h) (human (printed (h))), P21728
[4] = target: T4, CB1 (h) (human (printed (h))), P21554
[5] = target: T5, alpha 2A (h) (human (printed (h))), …
[6] = substrate: N neuronal alpha 4beta 2 (h) (human (printed (h))), P43681
[7] = target: T6, M2 (h) (human (printed (h))), P08172

Binder | % Inhibition of Specific Binding [1] [%] | % Inhibition of Specific Binding [2] [%] | % Inhibition of Specific Binding [3] [%] | % Inhibition of Specific Binding [4] [%] | % Inhibition of Specific Binding [5] [%] | % Inhibition of Specific Binding [6] [%] | % Inhibition of Specific Binding [7] [%]
Hexanoyl-CPPTQFC-OH (linker 1-7 via tMeBn(DOTA-AET)) [Hex-[Cys(tMeBn(DOTA-AET))-Pro-Pro-Thr-Gln-Phe-Cys]-OH (3BP-3554)] | 8 | -16 | 7 | -7 | 2 | -2 | 7
Hexanoyl-CPPTQFCD-NH2 (linker 1-7 via tMeBn(DOTA-PP)) [Hex-[Cys(tMeBn(DOTA-PP))-Pro-Pro-Thr-Gln-Phe-Cys]-Asp-NH2 (3BP-3407)] | 6 | -4 | 0 | 5 | -9 | -8 | -4
